Experimental data taken from the DeepSol protein solubility set.

Assay: soluble on expression in E. coli; label from the status in PepcDB or PDB records

Row | Sequence | soluble on expression in E. coli
1 | MSLTCGSGFGGRAFSCISACGPRPGRCCITAAPYRGISCYRGLTGGFGSHSVCGGFRAGSCGRSFGYRSGGVCGPSPPCITTVSVNESLLTPLNLEIDPNAQCVKQEEKEQIKSLNSRFAAFIDKVRFLEQQNKLLETKLQFYQNRECCQSNMEPLFEGYIETLRREAECVEADSGRLASELNHVQEVLEGYKKKYEEEVSLRATAENEFVALKKDVDCAYLRKSDLEANVEALIQEIDFLRRLYEEEIRILQSHISDTSVVVKLDNSRDLNMDCIIAEIKAQYDDIVTRSRAEAESWYRSKCEEMKATVIRHGETLRRTKEEINELNRMIQRLTAEVENAKCQNSKLEAAVAQSEQQGEAALSDARCKLAELEGALQKAKQDMACLIREYQEVMNSKLGLDIEIATYRRLLEGEEQRLCEGIGAVNVCVSSSRGGVVCGDLCVSGSRPVTGSVCSAPCNGNVAVSTGLCAPCGQLNTTCGGGSCGVGSCGISSLGVGSCGSSCRKCEGHHHHHH | not soluble
2 | GPHSLRYFVTAVSRPGLGEPRFIAVGYVDDTQFVRFDSDADNPRFEPRAPWMEQEGPEYWEEQTQRAKSDEQWFRVSLRTAQRYYNQSKGGSHTFQRMFGCDVGSDWRLLRGYQQFAYDGRDYIALNEDLKTWTAADTAALITRRKWEQAGDAEYYRAYLEGECVEWLRRYLELGNETLLRTDSPKAHVTYHPRSQVDVTLRCWALGFYPADITLTWQLNGEDLTQDMELVETRPAGDGTFQKWAAVVVPLGKEQNYTCHVHHKGLPEPLTLRWKLPPSTVSN | soluble
3 | MELKEGDEILNVAGPLGNPAPMEKFGKILAIGAYVGIAEVYPIAKAWQEIGNDVTTLHVTFEPMVILKDYFEKAVSRHIVEPVKIDQEKSFQENTKNVTKALTAKVKELLDNENWDLVFMVGPPGDQKAVFEVVKKYGIPMKVDLHPIMLEHHHHHH | not soluble
4 | MNDQEFFTVHHALTINVEPLAEHFTLPSHEIFEAEIPAPFVVASEFSQLEQLSDSARMELKNSDFKSVLQLLEAQNAKLNLLLTFMLSQQDDPQSRSATTRFGASQLTYLAKSPLQIGQKVRVKLFLEYPAAAIYCYASVMQCQQEPEHTLVTLKYDLLRDVDQDLLIKAALYQQQRLLRQRSLDREKPQA | soluble
5 | MGSDKIHHHHHHMWIGFDYGSANCAVGIMHEGKISQIPLSANSQYLPSTLYALDRELIAQAVYQGISQDKKSEYAKLRSSQLSRAIQVRHELDLSMDEQTVFVGQAAIDAYLEMPEEGFYVRSPKSFLGANGLREEQVALFEDIVTLMMLHVKGITDNYLADNGLPAATHAVIGRPVNFQSIGGEKSNQQAEAILSLAAKRAGFTQVAFLFEPVAAGMDFEASLEQDSTVLVVDVGGGTTDCSVVRMGPSFAANKQREQDCLGHSGQRVGGNDLDIALAMKGFMPSLGLDSLLKSGKPMPSAPFWQAVAVNDVSAQRDFASLNARKLLDTLVKDAKEPELVKRLKKVQQDQLGYKLVRQAEGAKVTLSDAMQTECDLGFIASDLSVELTQAQFSHFIIEPLAKIEALIQAAVAKADVNPDLVYVTGGTARSPAIYAKIASVYPEAKIVVGDHFGSVTAGLTRWTQKVF | not soluble
6 | MLRLRTPSRIHITLIDLNGSIGRVDGGVGLALEEPHIEIKAKESETFVLKGEPINRERFEIAAAKMAEYCGRGAEIEVVSDYDAHVGLGSGTQISLAVGRAFSELYGLNLTTRQIAEIMGRGGTSGIGVAVFDHGGLVVDGGHSTKEKKSFLPSSASRAKPAPMIARLDFPDWNVVLAIPDLKGFFGEREVNLFQKSCPVPLEDVREICHLILMKMLPAVVEADLDEFGKALKRIQELGFKKAEVEQYGELIKGCFDLADCIGMSSTGPTVYAITDSNAGGIERSLRDYFAEKGYECRTIVTKARNRGVEIEV | not soluble
7 | MVTINNARKILQRVDTLPLYLHAYAFHLNMRLERVLPADLLDIASENNLRGVKIHVLDGERFSLGNMDDKELSAFGDKARRLNLDIHIETSASDKASIDEAVAIALKTGASSVRFYPRYEGNLRDVLSIIANDIAYVRETYQDSGLTFTIEQHEDLKSHELVSLVKESEMESLSLLFDFANMINANEHPIDALKTMAPHITQVHIKDALIVKEPGGLGHKACISGQGDMPFKALLTHLICLGDDEPQVTAYGLEEEVDYYAPAFRFEDEDDNPWIPYRQMSETPLPENHLLDARLRKEKEDAINQINHVRNVLQQIKQEANHLLNH | soluble
8 | MTEKSLKLFIVLSRAYRSINDHMNKHIHKHGLNPTEFAVLELLYHKGDQPLQQIGDKILLASGSITYVVDKLEQKELLIRKASPTDRRVTFAQITEKGIGLLNDIFPDHAAEIDEMISVLSEEEVEMCTEMLKRVGLNAKQFHNK | not soluble
9 | MGSSHHHHHHSSGRENLYFQGMADQDQLKALRLRIDSLDEKLLELISERARCAQDVARVKTQTLGEGEAPVFYRPEREAWVLKHIMQLNKGPLDNEEVARLFREIMSSCLALEQPLKVAYLGPEGTFTQAAALKHFGNAVISTPMAAIDEVFREVAAGAVNFGVVPVENSTEGAVNHTLDSFLEHDMVICGEVELRIHHHLLVGETTKTDNITRIYSHAQSLAQCRKWLDSHYPSVERVAVSSNADAAKRVKSEWNSAAIAGDMAASLYDLSKLHEKIEDRPDNSTRFLIIGNQEVPPTGDDKTSIIVSMRNKPGALHELLVPFHNNGIDLTRIETRPSRSGKWTYVFFIDFVGHHKEPLIKDVLEKIGQEAVALKVLGSYPKAVL | soluble
10 | MGSDKIHHHHHHLRFIIVSGPPSAGKTAVMIHAIRHLLKDGIKVAACKIDCLKTSDDKNYRALGIPVAVGLSEYLCPDHFFVANLEEIYAWGSYYGTEVLILETAGLCHRCAPAIQGCLSICVIDNLSGIDTPQKVGPMLSTADVVLISKGDVVSQAEREVFRQRVEMVNPDAAVLSVNGLNGQGSLKLKKIIMESASVKRIEGQELRCSMPAAICSYCTGETMIGSSYQMGNVKKLDFGKF | not soluble
11 | MLVLYRASIRFKLRKNKNSFDSSNYFYGGNNICIINTKWGKHSGIGGYAEIIDTLVGNFTNISSWAKIGIRDHIHTNFLICDFVYKDNDHIMPPGISSFEDYWVKIGNDVWVGTNVTILRGVEVGDGAVIAAGSVVTKSIPPYAIVGGNPAKFIKWRFPFEVREKLLEIKWWDWDDDLIKEKKDYLQNLVGFDMDKYKIEYRKRKEDLFYLEHHHHHH | soluble
12 | MQFSTVASIAAVAAVASAAANVTTATVSQESTTLVTITSCEDHVCSETVSPALVSTATVTVDDVITQYTTWCPLTTEAPKNGTSTAAPVTSTEAPKNTTSAAPTHSVTSYTGAAAKALPAAGALLAGAAALLL | soluble
13 | GPGSMTSVETRIQALVQRYTLMENNINKLRKALASLGEGQQNANTTPRNEATAVAHHRDPCDLKELQPCPQDTPEVAALRRWCIEHSLTTAVFRWVPSDYYQHTLQWRRDELAAPSVHHLCKSILMENTHCTNKDCGVRENSRYYLIVYPYTEKFDAEMVMRHVKGLNEGLGKKKFNFRLAAPDVALQLTGFGHGAVAPFGTPTEIPVILSDKILQLTPAVFWMGGGHVDCKVRVDVEQFMEVIKPIVASVTTPLSAEELGQLVD | soluble
14 | MSSEAVDATTLVIIPTYNELENLPLIVDRVRTATPDVHVLIVDDNSPDGTGERADKLAADDDHIFVLHREGKGGLCAAYMAGFQWGLERDYQVLCEMDADGSHAPEQLHLLLAEITNGADLVIGSRYVPGGRVVNWPKNRWLLSKGGNVYISVALGAGLTDMTAGYRAFRREVLEALPLDELSNAGYIFQVEIAYRAVEAGFDVREVPITFTEREIGESKLDGSFVKDSLLEVTKWGLKHRGGQAKELSKEMVGLLNYEWKHFKKRNTWLLEHHHHHH | not soluble
15 | GPGSMHAFRTRDITLRVPSKDKLLRFSFCSSRHLLAETIRRHDLLRSTGAHVDFLQLLGTQITFTSLLASALEGEERVEARFTAEEATILTEALALGECRCYLRPEYNAQLAECGLPTFPLRVNRILYRQEKPFSSVVHADLAELLQPPCDVASSFAAASSGANEASGAPFSLYLPDMERRVPLEAWKSFFSYNSSLHAYNYLRRSDGSVPAVWLQSRIDAVRLVDHGFLNVDSTAAAAAWQRGEACSDEDDEKAQDIRRALLHAIPFSFGVVVTPLAAGVAVDQRVNQLNRVVMEAAALLSAPSGGGATVTSALQPLLDRCAEKHTACQHILSLVSGDHDGAYQAAVAARQYNDDPAQVAAVVDPIRRALGVQDFVVPLAATEAARSGLDFFCRCSKQNVLESLVSAPPRALESLKGSDNTVHCSFCGRRYKLAGAEWQELEMARSASTPPQ | not soluble
16 | GSHMDINNKARIHWACRRGMRELDISIMPFFEHEYDSLSDDEKRIFIRLLECDDPDLFNWLMNHGKPADAELEMMVRLIQTRNRERGPVAI | soluble
17 | MGSDKIHHHHHHMTIDTNFSKWFLQPSKESAQMYETVMQRALTLVVEHMKEAANPFSGADRHSIQQAVKDAAFISYSGEPIDGVIRAIQEGVMKHSLWISHPSAMAHLHCPPLLPSLVAEVVINALNQSMDSWDQSPSATYVETELLRFFTRSIGYSDLGDGVFTSGGTQSNYMGMLLARNKICESAFATNVQEEGLPVDARKLRILCSQEAHFSVQKSAAQLGLGANAVVQVATNERQQLCVNETRQTINELRLKGLIPFMIVATAGTTDFGSIDKLREIAELAREQELWLHVDAAYGGALLFSRQYGHLLNGLHLADSITIDFHKFYYQSISCGAFFVKDRHEFERIRFHADYLNPEEDKEADIINLVEKSVQTTKRFDALKLLVTFKWMGTEQFGQMIDYTIQLAKETGELLRRYGFDVLNDPELNAVVFRYVPECHRDDQSYVDQLNLTLQRHFYERGDLIMAKTKQRGHVYLKFTMLNPLNTIENMKTQIQKVKKAGIEFEKTQGAIRHEHVIHS | not soluble
18 | MSLDKPVIKISTENVDLIYRVGDNGRLYQSYLGKRLNHATDIAHLPQGSEAYLTHGMEDYFEPAIHIVHNDGNPSTLLKYVSHTRNQVSPGVDEVVITMQDDKYPVTVKLHYVAYQKENLIKTFTEISHREKKPVQLHKYASSMLHLNRANYFLTEFSGDWASEAHVKEQPLEFGKKTIDTKLGARANMFCSPFFQLALDGKSEENQGEVLVGTLGWTGNFSFVFEVDNKNELRVISGINPYASEYSLKPNEIFRTPDFYFTYSFKGKGQASRNFHDWARKYQVKDGNQTRMTLLNNWEATYFDFDEAKLVKLMDDAVELGVDMFLLDDGWFANKYPRSGDHQGLGDWDETADKLPHGIGYLTEAAKKKGIKFGIWIEPEMVNPKSELYEKHKDWVIHLPNRDEYYFRNQLVLDLSNPKVQDYVFGVVDNLMTKYPDIAFFKWDCNSPITNIYSVYLKDKQSHLYIDYVRGLYNVLERVKAKYPDLPMMLCSGGGGRSDYEALSYFTEFWPSDNTDPIERLFIQWGFSQVFPAKTMCAHVTTWNKNSSVKFRTDVAMMCKLGFDIKLADMSKDDETYCRTAVQNYNRLKPVVLEGDMYRLVSPYGSNHTSTMYVGKDKDKAVVFAFDIHPRYAEKILPVRLQGLDADKMYRVKEINLMPGANSSLSGNGEVFSGEFLMNVGLNLFTTQQLNSRVIEVVAEGHHHHHH | soluble
19 | EELEERLVEWIVVQCGPDVGRPDRGRLGFQVWLKNGVILSKLVNSLYPEGSKPVKVPENPPSMVFKQMEQVAQFLKAAEDYGVIKTDMFQTVDLYEGKDMAAVQRTLMALGSLAVTKNDGNYRGDPNWFMK | soluble
20 | MPTPYHLNMAAPLRIQLTPEEDRLLLELSLDPRTHKKTRLWAMMVRLAAEGWTAPKIAQHFHKDRTTVYLVLRRFLREGLQGLAYRKPPGAPRKFTPEMAAFVEERLAEDRVWTAPQLAAALAERFGVRLAPKVVARHLRAMGYVWRRTRYVPLGKPTEEEVKAFAEEEEEAKRGRRRG | soluble
21 | GSPGIPGSTSELEEDFAKILMLKEERIKELEKRLSEKEEEIQELKRKLHKCQSVLPVPSTHIGPRTT | soluble
